Assays:
8.3 TcR = assay: tetramer staining, flow cytometry on CD8+ T cells of 8.3 TcR-transgenic NOD mice
human NKG2D (human) [1] = molecular target: human NKG2D (human) (UniProt P26718); assay: cell-based or functional assay
human NKG2D (human) [2] = molecular target: human NKG2D (human) (UniProt P26718); assay: flow cytometry on NKL cells, biotin mAb on ice 30 min, then 16 h at 37° C., APC-streptavidin (antibody left on the surface after culture)
human NKG2D (human) [3] = molecular target: human NKG2D (human) (UniProt P26718); assay: flow cytometry on NKL cells, biotin mAb on ice 30 min, APC-streptavidin, before culture (0 h)

UniProt P26718, sequence (P26718 whole entry T72A): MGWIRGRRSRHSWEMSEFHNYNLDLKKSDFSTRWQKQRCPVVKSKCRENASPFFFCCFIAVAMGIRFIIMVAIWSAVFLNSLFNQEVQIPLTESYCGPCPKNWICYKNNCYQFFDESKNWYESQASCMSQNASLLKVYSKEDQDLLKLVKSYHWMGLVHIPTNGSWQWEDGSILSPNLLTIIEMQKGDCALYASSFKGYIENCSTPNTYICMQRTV

Row | percent of CD8+ T cells tetramer positive (8.3 TcR) | decrease in expression of NKG2D on the cell surface (human NKG2D (human) [1]) | mean fluorescence intensity (arbitrary units) (arbitrary units) (human NKG2D (human) [2]) | mean fluorescence intensity (arbitrary units) (arbitrary units) (human NKG2D (human) [3]) | Substance
1 | > 90% | – | – | – | NRP-V7/H-2K^d tetramer (from UniProt P01902 22-305) (peptide-MHC)
2 | – | 67% | 61 | 186 | mouse anti-human NKG2D mAb (R&D Systems clone 149810) (antibody)

Reference: patent US20080260727A1
